The assay addresses avb3 and avb5 integrins on A375M cells. Kind of assay: cell-based or functional assay.

B1: 3C5 (antibody, IgG2, V domains shown)
VH: RVQLQESGPGLVKPSQTLSLTCTVSGGSIISGGYFWTWIRQHPGKGLEWIGYIYYSGSTYYSPSLKSRVTISVDTSKNQFSLKLSSVTAADTAVYYCTRAVPAAKGYYSYYGMDVWGQGTTVTVSS
VL: DIVMTQSPLSLPVTPGEPASISCRSSQSLLHSSGYNYLDWFLQKPGQSPQLLIYLSSNRASGVPDRFSGSGSGTDFTLKISRVEAEDVGVYYCMQALQTPFTFGPGTKVDIK
B1 showed an Osteopontin Adhesion (% inhibition) at 5 ug/ml, A375M cells of 3% and a Vitronectin Adhesion (% inhibition) at 5 ug/ml, A375M cells of 10%.

B2: 5B11 (antibody, IgG2, V domains shown)
VH: QVQLVESGGGVVQPGRSVRLSCAASGFTFSSYGMHWVRQTPGKGLEWVAIIWYDGGIEYYADSVKGRFTISRDNSKNTLYLQMNSLRAEDTAVYYCARDHRYGSSWFDYWGQGTLVTVSS
VL: DIQMTQSPSSLSASVGDRVTITCRASQGINNYLAWFQQKPGKAPKSLIYAASSLQSGVPSNFSGSGSGTDFTLSISSLQPEDFATYYCQQYKSYPLTFGGGTKVEIR
B2 registered an Osteopontin Adhesion (% inhibition) at 5 ug/ml, A375M cells of 13% and a Vitronectin Adhesion (% inhibition) at 5 ug/ml, A375M cells of 9%.
